Experimental data taken from patent US20260285996 (published 2026).

Key:
human BLyS 60-mer = human BLyS 60-mer (human, UniProt Q9Y275); assay: SPR
human BLyS (BAFF) trimer [1] = molecular target: T1, human BLyS (BAFF) trimer (human, UniProt Q9Y275); assay: competition, BCMA:Fc
cyno FcRn = molecular target: T2, cyno FcRn (cynomolgus monkey); assay: SPR, pH 6.0
T2 chain 1: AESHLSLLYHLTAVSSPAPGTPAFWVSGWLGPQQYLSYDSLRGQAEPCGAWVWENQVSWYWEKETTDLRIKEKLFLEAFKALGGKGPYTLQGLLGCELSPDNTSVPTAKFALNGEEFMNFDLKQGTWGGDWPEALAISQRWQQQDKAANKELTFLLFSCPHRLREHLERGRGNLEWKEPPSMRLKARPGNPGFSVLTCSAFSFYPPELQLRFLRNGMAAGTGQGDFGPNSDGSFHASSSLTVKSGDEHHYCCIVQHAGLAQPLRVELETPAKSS
T2 chain 2: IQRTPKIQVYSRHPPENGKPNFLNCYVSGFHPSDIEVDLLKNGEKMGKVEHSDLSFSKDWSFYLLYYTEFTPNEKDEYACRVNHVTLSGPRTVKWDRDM

human BLyS (BAFF) trimer [2] = molecular target: T1, human BLyS (BAFF) trimer; assay: competition, TACI:Fc
human FcRn = human FcRn (human, UniProt P55899); assay: SPR, pH 6.0
human BLyS (BAFF) trimer [3] = molecular target: T1, human BLyS (BAFF) trimer; assay: competition, BAFFR on CHO-K1 cells
human BLyS (BAFF) trimer [4] = molecular target: T1, human BLyS (BAFF) trimer; assay: competition, BAFF-R:Fc

B1: Belimumab (antibody)
chain 1: not shown
chain 2: SSELTQDPAVSVALGQTVRVTCQGDSLRSYYASWYQQKPGQAPVLVIYGKNNRPSGIPDRFSGSSSGNTASLTITGAQAEDEADYYCSSRDSSGNHWVFGGGTELTVLGQPKAAPSVTLFPPSSEELQANKATLVCLISDFYPGAVTVAWKADSSPVKAGVETTTPSKQSNNKYAASSYLSLTPEQWKSHRSYSCQVTHEGSTVEKTVAPTECS
binding result (human BLyS 60-mer): no binding
IC50 (human BLyS (BAFF) trimer [1]): 0.126 nM
Kd (cyno FcRn): 760 nM
IC50 (human BLyS (BAFF) trimer [2]): 0.2 nM
Kd (human FcRn): 753 nM
IC50 (human BLyS (BAFF) trimer [3]): 0.0302 nM
IC50 (human BLyS (BAFF) trimer [4]): 0.1 nM

B2: Ab363A (antibody, V domains shown)
VH: QVQLQQSGAEVKKPGSSVRVSCKASGGTFNNDAINWVRQAPGQGLEWMGGIFPMFGTAKYSQNFQGRVAITADESTGTASMELSSLRSEDTAVYYCARSRDPLLYPHHALSPWGRGTMVTVSS
VL: SSELTQDPAVSVALGQTVRVTCQGDSLRYYYASWYQQKPGQAPVLVIYGKNNRPSGIPDRFSGSSSGNTASLTITGAQAEDEADYYCSSRDSSGNNWVFGGGTELTVL
binding result (human BLyS 60-mer): no binding
